According to patent publication US10201282B2 (The Regents of the University of California, priority 2014, dated 2019):

Target: T1, TEV protease (Tobacco etch virus, UniProt P04517)
T1 construct: With co-expression of the TEV protease; expressed in transfected cells; host or cells: HEK293 / HEK293T
Test: iTEV (EK) coiled-coil sensor in HEK293 cells without or with TEV protease
Type: cell-based
From the text: HEK293 cells were transfected with the iTEV (EK) sensor without (top two panels) or with (bottom two panels) TEV protease.
For example, heterodimeric coiled coils were used to replace split GFP in iTEV (De Crescenzo, G., Litowski, J. R., Hodges, R. S. & O'Connor-McCourt, M. D. Real-Time Monitoring of the Interactions of Two-Stranded de NovoDesigned Coiled-Coils: Effect of Chain Length on the Kinetic and Thermodynamic Constants of Binding †. Biochemistry 42, 1754-1763 (2003)).

T1 sequence (P04517 2038-2279): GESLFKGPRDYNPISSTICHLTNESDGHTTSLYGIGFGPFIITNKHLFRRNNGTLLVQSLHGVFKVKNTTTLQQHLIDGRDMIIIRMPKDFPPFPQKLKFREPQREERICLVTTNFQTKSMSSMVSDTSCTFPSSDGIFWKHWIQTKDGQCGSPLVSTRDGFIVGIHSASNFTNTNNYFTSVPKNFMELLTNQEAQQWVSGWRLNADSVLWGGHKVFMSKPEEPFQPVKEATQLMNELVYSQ

B1: iTEV (EK) (protein)
chain: MGGSKVSALKEKVSALKEKVSALKEKVSALKEKVSALKEGGSGSTTNIAPALDGAFHRITSSSSLMGLCDETATIIREITGYDRVMVVRFDEEGNGEILSERRRADLEAFLGNRYPASTIPQIARRLYEHNRVRLLVDVNYTPVPLQPRISPLNGRDLDMSLSCLRSMSPIHQKYMQDMGVGATLVCSLMVSGRLWGLIACHHYEPRFVPFHIRAAGEALAETCAIRIATLESENLYFQSEFCEREQIHLAGSIQPHGILLAVKEPDNVVIQASINAAEFLNTNSVVGRPLRDLGGDLPLQILPHLNGPLHLAPMTLRCTVGSPPRRVDCTIHRPSNGGLIVELEPATKLEGGGSGGSEVSALEKEVSALEKEVSALEKEVSALEKEVSALEK
modifications: (Amino acid sequence of iTEV(+) 5.1)
B1 was tested, and the infrared fluorescence (TEV protease co-expressed) was “becomes infrared fluorescent” and the infrared fluorescence (without TEV protease) was “not infrared fluorescent”.
